Reference: patent US20170008955A1 (CNJ, published 2017)

Assays:
cSNK:BSA conjugate [1] = target: T1, cSNK:BSA conjugate (bovine, head-to-tail cyclized; conjugated to BSA carrier); assay: BLI 2:1 fit, column kdis2; 50 nM row
T1 construct: also called BSA-cSNK
Experimental: (§1) Biolayer interferometry (Octet […], ForteBio) was used to qualitatively/quantitatively assess the interactions between humanized versions of 5E3 and cSNK:BSA conjugate. […] MAbs were loaded onto sensors and then washed in PBST. Each sensor was associated with one of several cSNK:BSA standards (100 nM to 0 nM) and then washed in PBST. Data was processed statistically using ForteBio Data Analysis software to determine the strength of antigen-antibody binding (KD). For each mAb analyzed, a 2:1 model provided the “best fit”.

cSNK:BSA conjugate [2] = target: T1, cSNK:BSA conjugate; assay: BLI 2:1 fit, column KD; 50 nM row
Experimental: as §1

cSNK:BSA conjugate [3] = target: T1, cSNK:BSA conjugate; assay: BLI 2:1 fit, column kon2; 50 nM row
Experimental: as §1

cSNK:BSA conjugate [4] = target: T1, cSNK:BSA conjugate; assay: BLI 2:1 fit, column KD2; 25 nM row
Experimental: as §1

cSNK:BSA conjugate [5] = target: T1, cSNK:BSA conjugate; assay: BLI 2:1 fit, column kon2; 12.5 nM row
Experimental: as §1

cSNK:BSA conjugate [6] = target: T1, cSNK:BSA conjugate; assay: BLI 2:1 fit, column kdis; 100 nM row
Experimental: as §1

cSNK:BSA conjugate [7] = target: T1, cSNK:BSA conjugate; assay: BLI 2:1 fit, column kon; 6.25 nM row
Experimental: as §1

cSNK:BSA conjugate [8] = target: T1, cSNK:BSA conjugate; assay: BLI (Octet RED96), 2:1 kinetics, KD2, summary table
Experimental: as §1
(§2) Table 7 summarizes the affinity constants of humanized 5E3 IgG1, IgG2 and IgG4 constructs. The KD ranges were determined using 2:1 kinetics of binding of analyte (BSA-cSNK) in solution to two different binding sites on the surface (immobilized bivalent, monospecific 5E3) in comparison to murine 5E3 using biolayer interferometry (Octet RED96).

cSNK:BSA conjugate [9] = target: T1, cSNK:BSA conjugate; assay: BLI 2:1 fit, column kdis; 12.5 nM row
Experimental: as §1

cSNK:BSA conjugate [10] = target: T1, cSNK:BSA conjugate; assay: BLI 2:1 fit, column kon; 25 nM row
Experimental: as §1

cSNK:BSA conjugate [11] = target: T1, cSNK:BSA conjugate; assay: BLI 2:1 fit, column kdis; 6.25 nM row
Experimental: as §1

cSNK:BSA conjugate [12] = target: T1, cSNK:BSA conjugate; assay: BLI 2:1 fit, column kdis2; 100 nM row
Experimental: as §1

cSNK:BSA conjugate [13] = target: T1, cSNK:BSA conjugate; assay: BLI 2:1 fit, column kon; 12.5 nM row
Experimental: as §1

cSNK:BSA conjugate [14] = target: T1, cSNK:BSA conjugate; assay: BLI 2:1 fit, column KD; 12.5 nM row
Experimental: as §1

cSNK:BSA conjugate [15] = target: T1, cSNK:BSA conjugate; assay: BLI 2:1 fit, column kdis2; 12.5 nM row
Experimental: as §1

cSNK:BSA conjugate [16] = target: T1, cSNK:BSA conjugate; assay: BLI 2:1 fit, column KD2; 50 nM row
Experimental: as §1

cSNK:BSA conjugate [17] = target: T1, cSNK:BSA conjugate; assay: BLI 2:1 fit, column KD2; 12.5 nM row
Experimental: as §1

cSNK:BSA conjugate [18] = target: T1, cSNK:BSA conjugate; assay: BLI 2:1 fit, column kon2; 25 nM row
Experimental: as §1

cSNK:BSA conjugate [19] = target: T1, cSNK:BSA conjugate; assay: BLI 2:1 fit, column kdis; 50 nM row
Experimental: as §1

cSNK:BSA conjugate [20] = target: T1, cSNK:BSA conjugate; assay: BLI 2:1 fit, column kon2; 6.25 nM row
Experimental: as §1

cSNK:BSA conjugate [21] = target: T1, cSNK:BSA conjugate; assay: BLI 2:1 fit, column kon; 100 nM row
Experimental: as §1

cSNK:BSA conjugate [22] = target: T1, cSNK:BSA conjugate; assay: BLI 2:1 fit, column KD2; 100 nM row
Experimental: as §1

cSNK:BSA conjugate [23] = target: T1, cSNK:BSA conjugate; assay: BLI 2:1 fit, column kdis2; 6.25 nM row
Experimental: as §1

cSNK:BSA conjugate [24] = target: T1, cSNK:BSA conjugate; assay: BLI 2:1 fit, column KD; 25 nM row
Experimental: as §1

cSNK:BSA conjugate [25] = target: T1, cSNK:BSA conjugate; assay: BLI 2:1 fit, column kdis2; 25 nM row
Experimental: as §1

cSNK:BSA conjugate [26] = target: T1, cSNK:BSA conjugate; assay: BLI 2:1 fit, column kon; 50 nM row
Experimental: as §1

cSNK:BSA conjugate [27] = target: T1, cSNK:BSA conjugate; assay: BLI 2:1 fit, column KD2; 6.25 nM row
Experimental: as §1

cSNK:BSA conjugate [28] = target: T1, cSNK:BSA conjugate; assay: BLI 2:1 fit, column kdis; 25 nM row
Experimental: as §1

cSNK:BSA conjugate [29] = target: T1, cSNK:BSA conjugate; assay: BLI 2:1 fit, column kon2; 100 nM row
Experimental: as §1

cSNK:BSA conjugate [30] = target: T1, cSNK:BSA conjugate; assay: BLI 2:1 fit, column KD; 6.25 nM row
Experimental: as §1

cSNK:BSA conjugate [31] = target: T1, cSNK:BSA conjugate; assay: BLI 2:1 fit, column KD; 100 nM row; 100 nM row, column KD (site with kon 4.16E+06, kdis 3.38E-02)
Experimental: as §1

cSNK:BSA conjugate [32] = target: T1, cSNK:BSA conjugate; assay: BLI (Octet RED96), 2:1 kinetics, KD1, summary table
Experimental: as §1, §2

T1 sequence (P02769 25-607 limits assumed): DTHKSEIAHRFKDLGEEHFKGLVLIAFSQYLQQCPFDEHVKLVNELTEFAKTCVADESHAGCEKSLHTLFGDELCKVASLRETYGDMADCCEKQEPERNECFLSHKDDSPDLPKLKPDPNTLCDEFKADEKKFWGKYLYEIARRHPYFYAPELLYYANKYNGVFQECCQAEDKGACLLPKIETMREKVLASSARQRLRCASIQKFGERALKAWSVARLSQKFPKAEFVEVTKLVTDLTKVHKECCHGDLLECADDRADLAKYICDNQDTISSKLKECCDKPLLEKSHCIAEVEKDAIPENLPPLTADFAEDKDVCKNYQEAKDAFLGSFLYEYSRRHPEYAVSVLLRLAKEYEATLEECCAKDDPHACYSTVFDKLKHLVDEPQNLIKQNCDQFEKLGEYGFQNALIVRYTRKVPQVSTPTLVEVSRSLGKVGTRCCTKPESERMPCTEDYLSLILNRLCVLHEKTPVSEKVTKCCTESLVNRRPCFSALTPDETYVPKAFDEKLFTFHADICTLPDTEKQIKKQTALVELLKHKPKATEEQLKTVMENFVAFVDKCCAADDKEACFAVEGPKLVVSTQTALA

B1: rehu5E3-IgG2 (antibody, V domains shown)
VH: QVQLQQSGPEVVKPGASVKISCKASGYIFTSYYIQWVIHAPGQGLEWIGWIYPGNVNTKYNEKFKGKATLTADKSSSTAYMELSSLRSEDSAVYFCARMDYEAHYWGQGTLVTVSS
VL: DIQMTQSPSSLSASLGDRVTLTCRASQEISGYLTWLQQKPEKAIKRLIYAASTLDSGVPKRFSGSRSGSDYTLTISSLQPEDFADYNCLQYANYPRTFGGGTKLEIK
notes: human IgG2/kappa
B1 was tested, and the koff (cSNK:BSA conjugate [1]) was 0.00089 s⁻¹, the Kd (cSNK:BSA conjugate [2]) was 8.14 nM and the kon (cSNK:BSA conjugate [3]) was 698000 M⁻¹ s⁻¹. For the same binder, the Kd (cSNK:BSA conjugate [4]) was 8.14 nM, the kon (cSNK:BSA conjugate [5]) was 4.16e+06 M⁻¹ s⁻¹ and the koff (cSNK:BSA conjugate [6]) was 0.0338 s⁻¹. For the same binder, the kon (cSNK:BSA conjugate [7]) was 698000 M⁻¹ s⁻¹, the Kd (cSNK:BSA conjugate [8]) was 1.28 nM and the koff (cSNK:BSA conjugate [9]) was 0.00089 s⁻¹. The kon (cSNK:BSA conjugate [10]) was 698000 M⁻¹ s⁻¹, the koff (cSNK:BSA conjugate [11]) was 0.00089 s⁻¹ and the koff (cSNK:BSA conjugate [12]) was 0.00089 s⁻¹. The kon (cSNK:BSA conjugate [13]) was 698000 M⁻¹ s⁻¹, the Kd (cSNK:BSA conjugate [14]) was 1.28 nM and the koff (cSNK:BSA conjugate [15]) was 0.0338 s⁻¹. The Kd (cSNK:BSA conjugate [16]) was 1.28 nM, the Kd (cSNK:BSA conjugate [17]) was 8.14 nM and the kon (cSNK:BSA conjugate [18]) was 4.16e+06 M⁻¹ s⁻¹. The koff (cSNK:BSA conjugate [19]) was 0.0338 s⁻¹, the kon (cSNK:BSA conjugate [20]) was 4.16e+06 M⁻¹ s⁻¹ and the kon (cSNK:BSA conjugate [21]) was 4.16e+06 M⁻¹ s⁻¹. The Kd (cSNK:BSA conjugate [22]) was 1.28 nM, the koff (cSNK:BSA conjugate [23]) was 0.0338 s⁻¹ and the Kd (cSNK:BSA conjugate [24]) was 1.28 nM. The koff (cSNK:BSA conjugate [25]) was 0.0338 s⁻¹, the kon (cSNK:BSA conjugate [26]) was 4.16e+06 M⁻¹ s⁻¹ and the Kd (cSNK:BSA conjugate [27]) was 8.14 nM. The koff (cSNK:BSA conjugate [28]) was 0.00089 s⁻¹, the kon (cSNK:BSA conjugate [29]) was 698000 M⁻¹ s⁻¹ and the Kd (cSNK:BSA conjugate [30]) was 1.28 nM. The Kd (cSNK:BSA conjugate [31]) was 8.14 nM and the Kd (cSNK:BSA conjugate [32]) was 8.14 nM.
